From article PMC11696179, “Molecular condensation of the CO/NF-YB/NF-YC/FT complex gates floral transition in Arabidopsis” (The EMBO Journal, 2024)

T1: mCherry-CO (CONSTANS), recombinant (Arabidopsis thaliana, UniProt Q39057 1-373)
T1 construct: CONSTANS (CO), Arabidopsis thaliana; No tag cleavage step is described; also called SUMO-mCherry-CO; source: E. coli Rosetta pLysS, purified (HisTrap; size exclusion when necessary); not shown: mCherry, N-terminal, kept
T1 sequence (looked up): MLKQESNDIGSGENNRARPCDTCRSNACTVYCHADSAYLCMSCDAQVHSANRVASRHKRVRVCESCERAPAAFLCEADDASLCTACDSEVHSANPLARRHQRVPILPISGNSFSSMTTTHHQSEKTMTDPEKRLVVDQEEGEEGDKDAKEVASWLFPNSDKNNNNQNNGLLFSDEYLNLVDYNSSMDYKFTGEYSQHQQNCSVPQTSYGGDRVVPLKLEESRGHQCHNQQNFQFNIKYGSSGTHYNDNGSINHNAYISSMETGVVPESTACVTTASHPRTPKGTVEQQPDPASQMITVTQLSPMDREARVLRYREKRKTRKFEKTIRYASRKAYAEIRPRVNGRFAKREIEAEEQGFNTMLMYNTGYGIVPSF

T2: CO/NF-YC9 mixture (mCherry-CO with NF-YC9-GFP), immobilised together (Arabidopsis thaliana, UniProt Q39057 1-373; Q8L4B2 1-231)
T2 chain 1: T1 sequence (looked up)
T2 chain 2: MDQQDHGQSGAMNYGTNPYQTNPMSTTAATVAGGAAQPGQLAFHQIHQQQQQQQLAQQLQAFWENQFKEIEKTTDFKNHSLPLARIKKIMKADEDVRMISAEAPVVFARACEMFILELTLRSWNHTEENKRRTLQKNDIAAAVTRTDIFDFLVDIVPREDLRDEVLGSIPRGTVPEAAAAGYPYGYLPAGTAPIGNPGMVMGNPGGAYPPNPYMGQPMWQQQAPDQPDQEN

T3: NF-YC9-GFP, recombinant (Arabidopsis thaliana, UniProt Q8L4B2 1-231)
T3 chain: T2 chain 2

B1: NF-YB2, recombinant (natural protein, Arabidopsis thaliana, UniProt Q9FGJ3 1-190, looked up)
chain: MGDSDRDSGGGQNGNNQNGQSSLSPREQDRFLPIANVSRIMKKALPANAKISKDAKETMQECVSEFISFVTGEASDKCQKEKRKTINGDDLLWAMTTLGFEDYVEPLKVYLQRFREIEGERTGLGRPQTGGEVGEHQRDAVGDGGGFYGGGGGMQYHQHHQFLHQQNHMYGATGGGSDSGGGAASGRTRT
notes: Nuclear Factor-Y subunit B2 (NF-YB2), Arabidopsis thaliana; Unlabelled form, as used in SPR; also called His-NF-YB2; source: E. coli Rosetta pLysS, purified (HisTrap; size exclusion when necessary)
B2: mCherry-CO (CONSTANS), recombinant (natural protein)
chain: T1 sequence (looked up)
B3: NF-YC9-GFP, recombinant (natural protein, Arabidopsis thaliana, UniProt Q8L4B2 1-231, looked up)
chain: T2 chain 2
notes: Nuclear Factor-Y subunit C9 (NF-YC9), Arabidopsis thaliana; No tag cleavage step is described; also called MBP-NF-YC9-GFP; source: E. coli Rosetta pLysS, purified (HisTrap; size exclusion when necessary); not shown: GFP, C-terminal, kept
B4: NF-YB2, recombinant, labelled with Alexa Fluor 647 (natural protein, Arabidopsis thaliana, UniProt Q9FGJ3 1-190, looked up)
chain: B1 chain
modifications: Alexa Fluor 647 label (site not stated)
notes: Nuclear Factor-Y subunit B2 (NF-YB2), Arabidopsis thaliana; Same construct as m3, with the dye, as used for TIRF single-particle imaging; also called NF-YB2 (labeled by Alexa fluor 647); NF-YB2 with Alex647; source: E. coli Rosetta pLysS, purified (HisTrap; size exclusion when necessary)

Columns and labels:
NF-YC9-GFP, recombinant [1] = biological target: B3; experiment: SPR; Biacore T200, 25 °C; CO, NF-YC9 or a CO/NF-YC9 mixture (4:1) amine-coupled to a CM5 chip (1000-2000 RU); analytes NF-YB2, CO, NF-YC9 in twofold dilutions; HBST (10 mM HEPES, 150 mM NaCl, 3 mM EDTA, 0.05% Tween 20, pH 7.4); bivalent analyte model; conditions: both partners purified
[2] = biological target: T1, mCherry-CO (CONSTANS), recombinant; experiment: as above; conditions: both partners purified
[3] = biological target: T2, CO/NF-YC9 mixture (mCherry-CO with …); experiment: SPR; bivalent model, kd1
NF-YC9-GFP, recombinant [4] = biological target: T3, NF-YC9-GFP, recombinant; experiment: SPR; bivalent model, kd1
SPR; bivalent model, kd1 = biological target: the molecule itself; experiment: SPR; bivalent model, kd1
[5] = biological target: B2; experiment: SPR; bivalent model, kd1
[6] = biological target: T2, CO/NF-YC9 mixture (mCherry-CO with …); experiment: SPR; bivalent model
NF-YC9-GFP, recombinant [7] = biological target: T3, NF-YC9-GFP, recombinant; experiment: SPR; bivalent model
SPR; bivalent model = biological target: the molecule itself; experiment: SPR; bivalent model
[8] = biological target: B2; experiment: SPR; bivalent model
[9] = biological target: the molecule itself; experiment: SPR; Biacore T200, 25 °C; CO, NF-YC9 or a CO/NF-YC9 mixture (4:1) amine-coupled to a CM5 chip (1000-2000 RU); analytes NF-YB2, CO, NF-YC9 in twofold dilutions; HBST (10 mM HEPES, 150 mM NaCl, 3 mM EDTA, 0.05% Tween 20, pH 7.4); bivalent analyte model
[10] = biological target: T1, mCherry-CO (CONSTANS), recombinant; experiment: single-particle colocalisation by TIRF microscopy; 10 nM of each of two recombinant proteins mixed in 20 mM HEPES, 150 mM NaCl, pH 7.4 for 5 min, put on cover glass; conditions: both partners purified
NF-YC9-GFP, recombinant [11] = biological target: B3; experiment: as above; conditions: both partners purified

B1
binding result (NF-YC9-GFP, recombinant [1]): binds
binding result [2]: binds
koff [3]: 0.00139 s⁻¹
koff (NF-YC9-GFP, recombinant [4]): 0.00173 s⁻¹
koff (SPR; bivalent model, kd1): 0.00137 s⁻¹
koff [5]: 0.00202 s⁻¹
Kd [6]: 40.6 nM
Kd (NF-YC9-GFP, recombinant [7]): 41.6 nM
Kd (SPR; bivalent model): 23.7 nM
Kd [8]: 100 nM

B2
koff (NF-YC9-GFP, recombinant [4]): 0.00138 s⁻¹
koff (SPR; bivalent model, kd1): 0.0014 s⁻¹
Kd (NF-YC9-GFP, recombinant [7]): 53.6 nM
Kd (SPR; bivalent model): 53.8 nM

B3
binding result [9]: binds
koff (SPR; bivalent model, kd1): 0.0017 s⁻¹
binding result [10]: binds
Kd (SPR; bivalent model): 27.8 nM

B4
binding result (NF-YC9-GFP, recombinant [11]): binds
binding result [10]: binds
